T1: Bovine, dephosphorylated, Myelin Basic Protein (MBP), P02687
T1 chain: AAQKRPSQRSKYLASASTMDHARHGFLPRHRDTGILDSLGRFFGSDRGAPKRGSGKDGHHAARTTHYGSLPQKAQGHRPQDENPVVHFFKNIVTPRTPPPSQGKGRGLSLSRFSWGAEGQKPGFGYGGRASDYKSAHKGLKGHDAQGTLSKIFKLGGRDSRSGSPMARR

B1: MAP3K5(ASK1) (protein)
chain: MSTEADEGITFSVPPFAPSGFCTIPEGGICRRGGAAAVGEGEEHQLPPPPPGSFWNVESAAAPGIGCPAATSSSSATRGRGSSVGGGSRRTTVAYVINEASQGQLVVAESEALQSLREACETVGATLETLHFGKLDFGETTVLDRFYNADIAVVEMSDAFRQPSLFYHLGVRESFSMANNIILYCDTNSDSLQSLKEIICQKNTMCTGNYTFVPYMITPHNKVYCCDSSFMKGLTELMQPNFELLLGPICLPLVDRFIQLLKVAQASSSQYFRESILNDIRKARNLYTGKELAAELARIRQRVDNIEVLTADIVINLLLSYRDIQDYDSIVKLVETLEKLPTFDLASHHHVKFHYAFALNRRNLPGDRAKALDIMIPMVQSEGQVASDMYCLVGRIYKDMFLDSNFTDTESRDHGASWFKKAFESEPTLQSGINYAVLLLAAGHQFESSFELRKVGVKLSSLLGKKGNLEKLQSYWEVGFFLGASVLANDHMRVIQASEKLFKLKTPAWYLKSIVETILIYKHFVKLTTEQPVAKQELVDFWMDFLVEATKTDVTVVRFPVLILEPTKIYQPSYLSINNEVEEKTISIWHVLPDDKKGIHEWNFSASSVRGVSISKFEERCCFLYVLHNSDDFQIYFCTELHCKKFFEMVNTITEEKGRSTEEGDCESDLLEYDYEYDENGDRVVLGKGTYGIVYAGRDLSNQVRIAIKEIPERDSRYSQPLHEEIALHKHLKHKNIVQYLGSFSENGFIKIFMEQVPGGSLSALLRSKWGPLKDNEQTIGFYTKQILEGLKYLHDNQIVHRDIKGDNVLINTYSGVLKISDFGTSKRLAGINPCTETFTGTLQYMAPEIIDKGPRGYGKAADIWSLGCTIIEMATGKPPFYELGEPQAAMFKVGMFKVHPEIPESMSAEAKAFILKCFEPDPDKRACANDLLVDEFLKVSSKKKKTQPKLSALSAGSNEYLRSISLPVPVLVEDTSSSSEYGSVSPDTELKVDPFSFKTRAKSCGERDVKGIRTLFLGIPDENFEDHSAPPSPEEKDSGFFMLRKDSERRATLHRILTEDQDKIVRNLMESLAQGAEEPKLKWEHITTLIASLREFVRSTDRKIIATTLSKLKLELDFDSHGISQVQVVLFGFQDAVNKVLRNHNIKPHWMFALDSIIRKAVQTAITILVPELRPHFSLASESDTADQEDLDVEDDHEEQPSNQTVRRPQAVIEDAVATSGVSTLSSTVSHDSQSAHRSLNVQLGRMKIETNRLLEELVRKEKELQALLHRAIEEKDQEIKHLKLKSQPIEIPELPVFHLNSSGTNTEDSELTDWLRVNGADEDTISRFLAEDYTLLDVLYYVTRDDLKCLRLRGGMLCTLWKAIIDFRNKQT
B2: MAPK13(p38delta) (protein)
chain: MSLIRKKGFYKQDVNKTAWELPKTYVSPTHVGSGAYGSVCSAIDKRSGEKVAIKKLSRPFQSEIFAKRAYRELLLLKHMQHENVIGLLDVFTPASSLRNFYDFYLVMPFMQTDLQKIMGMEFSEEKIQYLVYQMLKGLKYIHSAGVVHRDLKPGNLAVNEDCELKILDFGLARHADAEMTGYVVTRWYRAPEVILSWMHYNQTVDIWSVGCIMAEMLTGKTLFKGKDYLDQLTQILKVTGVPGTEFVQKLNDKAAKSYIQSLPQTPRKDFTQLFPRASPQAADLLEKMLELDVDKRLTAAQALTHPFFEPFRDPEEETEAQQPFDDSLEHEKLTVDEWKQHIYKEIVNFSPIARKDSRRRSGMKL
B3: MAP3K2(MEKK2) (protein)
chain: MDDQQALNSIMQDLAVLHKASRPALSLQETRKAKSSSPKKQNDVRVKFEHRGEKRILQFPRPVKLEDLRSKAKIAFGQSMDLHYTNNELVIPLTTQDDLDKAVELLDRSIHMKSLKILLVINGSTQATNLEPLPSLEDLDNTVFGAERKKRLSIIGPTSRDRSSPPPGYIPDELHQVARNGSFTSINSEGEFIPESMDQMLDPLSLSSPENSGSGSCPSLDSPLDGESYPKSRMPRAQSYPDNHQEFSDYDNPIFEKFGKGGTYPRRYHVSYHHQEYNDGRKTFPRARRTQGTSLRSPVSFSPTDHSLSTSSGSSIFTPEYDDSRIRRRGSDIDNPTLTVMDISPPSRSPRAPTNWRLGKLLGQGAFGRVYLCYDVDTGRELAVKQVQFDPDSPETSKEVNALECEIQLLKNLLHERIVQYYGCLRDPQEKTLSIFMEYMPGGSIKDQLKAYGALTENVTRKYTRQILEGVHYLHSNMIVHRDIKGANILRDSTGNVKLGDFGASKRLQTICLSGTGMKSVTGTPYWMSPEVISGEGYGRKADIWSVACTVVEMLTEKPPWAEFEAMAAIFKIATQPTNPKLPPHVSDYTRDFLKRIFVEAKLRPSADELLRHMFVHYH
B4: MAPK8(JNK1) (protein)
chain: MSRSKRDNNFYSVEIGDSTFTVLKRYQNLKPIGSGAQGIVCAAYDAILERNVAIKKLSRPFQNQTHAKRAYRELVLMKCVNHKNIIGLLNVFTPQKSLEEFQDVYIVMELMDANLCQVIQMELDHERMSYLLYQMLCGIKHLHSAGIIHRDLKPSNIVVKSDCTLKILDFGLARTAGTSFMMTPYVVTRYYRAPEVILGMGYKENVDLWSVGCIMGEMVCHKILFPGRDYIDQWNKVIEQLGTPCPEFMKKLQPTVRTYVENRPKYAGYSFEKLFPDVLFPADSEHNKLKASQARDLLSKMLVIDASKRISVDEALQHPYINVWYDPSEAEAPPPKIPDKQLDEREHTIEEWKELIYKEVMDLEERTKNGVIRGQPSPLAQVQQ
B5: MAPK12(p38gamma) (protein)
chain: MSSPPPARSGFYRQEVTKTAWEVRAVYRDLQPVGSGAYGAVCSAVDGRTGAKVAIKKLYRPFQSELFAKRAYRELRLLKHMRHENVIGLLDVFTPDETLDDFTDFYLVMPFMGTDLGKLMKHEKLGEDRIQFLVYQMLKGLRYIHAAGIIHRDLKPGNLAVNEDCELKILDFGLARQADSEMTGYVVTRWYRAPEVILNWMRYTQTVDIWSVGCIMAEMITGKTLFKGSDHLDQLKEIMKVTGTPPAEFVQRLQSDEAKNYMKGLPELEKKDFASILTNASPLAVNLLEKMLVLDAEQRVTAGEALAHPYFESLHDTEDEPQVQKYDDSFDDVDRTLDEWKRVTYKEVLSFKPPRQLGARVSKETPL
B6: MAP3K9(MLK1) (protein)
chain: MEPSRALLGCLASAAAAAPPGEDGAGAGAEEEEEEEEEAAAAVGPGELGCDAPLPYWTAVFEYEAAGEDELTLRLGDVVEVLSKDSQVSGDEGWWTGQLNQRVGIFPSNYVTPRSAFSSRCQPGGEDPSCYPPIQLLEIDFAELTLEEIIGIGGFGKVYRAFWIGDEVAVKAARHDPDEDISQTIENVRQEAKLFAMLKHPNIIALRGVCLKEPNLCLVMEFARGGPLNRVLSGKRIPPDILVNWAVQIARGMNYLHDEAIVPIIHRDLKSSNILILQKVENGDLSNKILKITDFGLAREWHRTTKMSAAGTYAWMAPEVIRASMFSKGSDVWSYGVLLWELLTGEVPFRGIDGLAVAYGVAMNKLALPIPSTCPEPFAKLMEDCWNPDPHSRPSFTNILDQLTTIEESGFFEMPKDSFHCLQDNWKHEIQEMFDQLRAKEKELRTWEEELTRAALQQKNQEELLRRREQELAEREIDILERELNIIIHQLCQEKPRVKK
B7: MAPK3(ERK1) (protein)
chain: MAAAAAQGGGGGEPRRTEGVGPGVPGEVEMVKGQPFDVGPRYTQLQYIGEGAYGMVSSAYDHVRKTRVAIKKISPFEHQTYCQRTLREIQILLRFRHENVIGIRDILRASTLEAMRDVYIVQDLMETDLYKLLKSQQLSNDHICYFLYQILRGLKYIHSANVLHRDLKPSNLLINTTCDLKICDFGLARIADPEHDHTGFLTEYVATRWYRAPEIMLNSKGYTKSIDIWSVGCILAEMLSNRPIFPGKHYLDQLNHILGILGSPSQEDLNCIINMKARNYLQSLPSKTKVAWAKLFPKSDSKALDLLDRMLTFNPNKRITVEEALAHPYLEQYYDPTDEPVAEEPFTFAMELDDLPKERLKELIFQETARFQPGVLEAP
B8: MAPK11(p38B) (protein)
chain: MSGPRAGFYRQELNKTVWEVPQRLQGLRPVGSGAYGSVCSAYDARLRQKVAVKKLSRPFQSLIHARRTYRELRLLKHLKHENVIGLLDVFTPATSIEDFSEVYLVTTLMGADLNNIVKCQALSDEHVQFLVYQLLRGLKYIHSAGIIHRDLKPSNVAVNEDCELRILDFGLARQADEEMTGYVATRWYRAPEIMLNWMHYNQTVDIWSVGCIMAELLQGKALFPGSDYIDQLKRIMEVVGTPSPEVLAKISSEHARTYIQSLPPMPQKDLSSIFRGANPLAIDLLGRMLVLDSDQRVSAAEALAHAYFSQYHDPEDEPEAEPYDESVEAKERTLEEWKELTYQEVLSFKPPEPPKPPGSLEIEQ
B9: MAPK14(p38alpha) (protein)
chain: MSQERPTFYRQELNKTIWEVPERYQNLSPVGSGAYGSVCAAFDTKTGLRVAVKKLSRPFQSIIHAKRTYRELRLLKHMKHENVIGLLDVFTPARSLEEFNDVYLVTHLMGADLNNIVKCQKLTDDHVQFLIYQILRGLKYIHSADIIHRDLKPSNLAVNEDCELKILDFGLARHTDDEMTGYVATRWYRAPEIMLNWMHYNQTVDIWSVGCIMAELLTGRTLFPGTDHINQLQQIMRLTGTPPAYLINRMPSHEARNYIQSLTQMPKMNFANVFIGANPLAVDLLEKMLVLDSDKRITAAQALAHAYFAQYHDPDDEPVADPYDQSFESRDLLIDEWKSLTYDEVISFVPPPLDQEEMES
B10: MAP4K4(HGK) (protein)
chain: MANDSPAKSLVDIDLSSLRDPAGIFELVEVVGNGTYGQVYKGRHVKTGQLAAIKVMDVTEDEEEEIKLEINMLKKYSHHRNIATYYGAFIKKSPPGHDDQLWLVMEFCGAGSITDLVKNTKGNTLKEDWIAYISREILRGLAHLHIHHVIHRDIKGQNVLLTENAEVKLVDFGVSAQLDRTVGRRNTFIGTPYWMAPEVIACDENPDATYDYRSDLWSCGITAIEMAEGAPPLCDMHPMRALFLIPRNPPPRLKSKKWSKKFFSFIEGCLVKNYMQRPSTEQLLKHPFIRDQPNERQVRIQLKDHIDRTRKKRGEKDETEYEYSGSEE
B11: MAPKAPK3 (protein)
chain: MDGETAEEQGGPVPPPVAPGGPGLGGAPGGRREPKKYAVTDDYQLSKQVLGLGVNGKVLECFHRRTGQKCALKLLYDSPKARQEVDHHWQASGGPHIVCILDVYENMHHGKRCLLIIMECMEGGELFSRIQERGDQAFTEREAAEIMRDIGTAIQFLHSHNIAHRDVKPENLLYTSKEKDAVLKLTDFGFAKETTQNALQTPCYTPYYVAPEVLGPEKYDKSCDMWSLGVIMYILLCGFPPFYSNTGQAISPGMKRRIRLGQYGFPNPEWSEVSEDAKQLIRLLLKTDPTERLTITQFMNHPWINQSMVVPQTPLHTARVLQEDKDHWDEVKEEMTSALATMRVDYDQVKIKDLKTSNNRLLNKRRKKQAGSSSASQGCNNQ

Biological target: T1, Bovine, dephosphorylated, Myelin Basic …

| Protein | MBP Kinase Activity |
| --- | --- |
| B1 | Weak |
| B2 | Weak |
| B3 | Weak |
| B4 | Negative |
| B5 | Strong |
| B6 | Strong |
| B7 | Strong |
| B8 | Strong |
| B9 | Strong |
| B10 | Strong |
| B11 | Strong |

From patent US20090099029
